PMC8080463

Target: bFGF (UniProt P09038 143-288)
Experiment: SPR

bFGF, sequence (P09038 143-288): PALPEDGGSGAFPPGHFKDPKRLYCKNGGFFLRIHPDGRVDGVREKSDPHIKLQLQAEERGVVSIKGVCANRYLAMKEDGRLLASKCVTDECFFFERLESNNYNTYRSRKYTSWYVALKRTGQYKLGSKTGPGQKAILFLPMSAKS

Binding result, no binding:
GGGGTTGGGCGGGGGTGACTTTTGGGGGATAAGGGG (ssDNA) [bFGF-PQS1]
GGGGGCGGCGCGCAGGAGGGAGG (ssDNA) [bFGF-PQS2]
GGGGGCGCGGGAGGCTGGTGGGTGTGGGGGG (ssDNA) [bFGF-PQS3]

Target: aFGF (UniProt P05230 16-155)
Experiment: SPR

aFGF, sequence (P05230 16-155): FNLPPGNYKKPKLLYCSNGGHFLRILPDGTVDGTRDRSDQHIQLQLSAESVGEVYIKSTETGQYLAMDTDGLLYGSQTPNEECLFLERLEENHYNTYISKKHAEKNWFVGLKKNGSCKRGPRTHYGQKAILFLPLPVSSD

Binding result, no binding:
GGAGAACAGGAAGGCGGGGGTGAGGG (ssDNA) [aFGF-PQS1]
GGAGAGGGTAGAGTGGGATGGG (ssDNA) [aFGF-PQS2]
GGAGACGGTAGGGCAAAGTGG (ssDNA) [aFGF-PQS3]
GGTGGGTGGGTATGG (ssDNA) [aFGF-PQS4]
GGCACTGGAGGAATGG (ssDNA) [aFGF-PQS5]
GGGAGAGGGACGGGCCGTGG (ssDNA) [aFGF-PQS6]
GGTGGGGGGGG (ssDNA) [aFGF-PQS7]
GGTTGGGACTGGCGAGG (ssDNA) [aFGF-PQS8]
GGCCAGGACAGGGTAAGG (ssDNA) [aFGF-PQS9]
GGCTAGAAGGTGGGGAATAAGG (ssDNA) [aFGF-PQS10]
GGGCTTGGCTCTGGGGATGG (ssDNA) [aFGF-PQS11]
GGGTGGTGTGGGAGTGG (ssDNA) [aFGF-PQS12]
GGCATGGTATCTGGAGGCAGG (ssDNA) [aFGF-PQS13]
GGGCTGGAGGGGGCAGG (ssDNA) [aFGF-PQS14]
GGCCTGCAGGACTCTGGGAGG (ssDNA) [aFGF-PQS15]
GGGCAAAGGTCCTAGGGTGGGGG (ssDNA) [aFGF-PQS16]
GGAAATGAGGCAGAGGGGGAGTAAGG (ssDNA) [aFGF-PQS17]
GGGAGGTTAGGGTTGG (ssDNA) [aFGF-PQS18]
GGTGGAGGAAAGG (ssDNA) [aFGF-PQS19]
GGGAAGGAGGGAGGAAGGGAGGGAGGG (ssDNA) [aFGF-PQS20]
GGTCCCAGGCCTGGGAGGG (ssDNA) [aFGF-PQS21]
GGATGGGACAAGGGACAGG (ssDNA) [aFGF-PQS22]
GGTGGGAGGAAGG (ssDNA) [aFGF-PQS23]
